The assay relates to MSRV-Env induced EAE in C57BL/6 mice. As to the kind of experiment: EAE clinical score, Example 3.A (EAE induced with MOG and MSRV-Env). The format is in vivo. As to conditions: treatment from day 12 to day 29: GNbAc1 200 μg once, L-NAME 600 μg IP and SMT 1 mg IP every 4 days, DMF 1 mg daily in drinking water. The text has this: Pathogen free female C57BL/6 nice (6-8 weeks old) were purchased from the Charles River laboratories and maintained at the animal facilities for one week before immunization. One day before immunization, all mice have been weighed, and then evaluated on the Rotarod Test. Rotarod:
Animals were weighed and clinically scored 5 days per week according to the following criteria: 0=no signs; 1=tail paralysis or hyper-reflex of hind limb(s) or unilateral hind limb weakness; 2=bilateral hind limb or forelimb weakness; 3=plus unilateral paralysis or major deficit; 4=complete hind limb or forelimb paralysis; 5=plus partial paralysis or major deficit of opposite limbs; 6=moribund or dead. These were adapted from standard criteria, in order to reflect the more rapid induction of brain and cervical cord lesions with this model.
All groups of 6 (six) mice have been first injected s.c. in the neck on day 0 then in the dorsal flanks on day 7 and 14; with 200 μg of MOG/mouse+60 μg of MSRV-Env+IFA.
For Groups G to H, the treatments with GNbAc1, L-NAME, SMT and DMF alone or together with GNbAc1 with the doses indicated below, have been initiated on day 12 post immunization when the progression of EAE clinical symptoms was already observed. GNbAc1 humanized antibody was administered once, but L-Name or SMT was administered every 4 days until termination of the study on day 29. Regarding Groups E and H, attributed for the treatment with DMF, we have previously determined the volume of daily water consumption by each mouse and it has been determined that (in our condition), each mouse consumed around 3.5 ml drinking water per day. Thus, on the basis of this measurement, a dose of 1 mg DMF+0.08% Methocel per mouse were added to 3.5 ml drinking water daily.
350 ng of pertussis toxin (PTX) per animal was injected (i.p.) in all groups on the same day following each immunogen injection, and replicated 2 days later, as usual in EAE protocols in order to facilitate the migration lymphocytes through the blood-brain barrier.

B1: GNbAC1: recombinant humanized anti-Env IgG4 monoclonal antibody comprising the CDRs of SEQ ID No. 1 to 6 (antibody, chains of the INN, looked up, V domains shown)
VH: QVQLVQSGAEVKKPGSSVKVSCKASGYTFTDYEMHWVRQAPGQGLEWIGAVAPETGGTAYNQKFKGRATITADKSTSTAYMELSSLRSEDTAVYYCTSTVVPFAYWGQGTLVTVSS
VL: QIQLTQSPSSLSASVGDRVTITCSASSSVSYMYWYQQKPGKAPKAWIYRTSNLASGVPSRFSGSGSGTDYTLTISSLQPEDFATYYCQQYQSLPLTFGGGTKVEIK
For B1, the “EAE clinical score kinetics and recovery” value is “improve after its injection”. Further, the “EAE clinical score kinetics and recovery” value (listed as GNbAc1) was “diminished slightly”.

The values above are taken from patent publication US10752675B2, “Compounds for treating the remyelination blockade in diseases associated with the expression of HERV-W envelope protein” (GENEURO S.A., priority 2012, dated 2020).
